{
  "source": "patent US20050171004A1",
  "about": "“Use of cardiotrophin-1 to promote wound healing and counteract overt fibrosis” (priority 2003, published 2005)",
  "key": {"cardiac fibroblasts [1]": {"test_system": "cardiac fibroblasts", "assay": "Immunofluorescence of STAT3 nuclear accumulation", "type": "cell-based, rat", "details": "CT-1 for 5 minutes", "description": "Cardiac fibroblasts were seeded onto coverslips in 6 well dishes and allowed to attach overnight in media containing 10% serum. The cells were rendered quiescent in serum free media for 24 hours before being stimulated with CT-1 for specified times. The media was removed, cells were rinsed with PBS and fixed with 4% paraformaldehyde. Cells were permeabilized with 0.1% Triton X-100 and incubated with primary antibodies, biotinylated secondary antibodies, and streptavidin FITC. Nuclei were stained with Hoechst 33342. The cells were visualized with epifluorescent microscopy with appropriate filters (Nikon Canada)."}, "cardiac fibroblasts [2]": {"test_system": "cardiac fibroblasts", "assay": "Western analysis of cell cycle regulatory proteins (cyclins, Rb)", "type": "cell-based, rat", "description": "(§1) Protein concentrations of tissue and cell lysates were determined by the BCA method (Smith et al., 1985, Anal Biochem 150: 76-85). Proteins were separated by 8-12% SDS-PAGE and transferred to PVDF membrane (Roche, Indianapolis, Ind.) for 1 hour at 300 mA for small proteins or for 2 hours at 500 mA for proteins greater than 100 kDa. Membranes were blocked with 5% non-fat skim milk in tris-buffered saline containing 0.2% Tween 20 (TBST). Proteins were visualized with ECL Plus (Amersham) after probing with primary and secondary antibodies. Band intensity was quantified using a CCD camera imaging densitometer (GS670, Bio-Rad Laboratories (Canada) Ltd. Mississauga, Ontario).\nCardiac fibroblasts were isolated from the ventricles of rats and incubated with CT-1 for specified times and at specified concentrations. […] Addition of CT-1 results in S-phase re-entry within 6 hours of stimulation (FIG. 7). […] (FIG. 8). […] To determine the effect of CT-1 on cell cycle regulatory proteins, we incubated cardiac fibroblasts with CT-1 and lysed them at specified times. […] To determine if increased DNA synthesis was accompanied by an increase in cell number, we repeated the experiments in the absence of ^3H-thymidine, detached the cells from the plates and counted the total number of cells."}, "cardiac fibroblasts [3]": {"test_system": "cardiac fibroblasts", "assay": "Western analysis of myosin light chain phosphorylation", "type": "cell-based, rat", "details": "CT-1 10 ng/mL", "description": "as §1\nThe infarct zone is repopulated by interstitial fibroblasts that infiltrate the scar after MI. […] Similar results were obtained when using the Costar Transwell® system (data not shown). To determine how the chemotactic response is transduced, we used specific inhibitors of intracellular signaling pathways. […] This effect could be blunted by co-incubation with AG490 (FIG. 22). […] Since activation of myosin motors is required for effective cell migration, and CT-1 induced migration could be inhibited by co-incubation with a myosin light chain kinase inhibitor, we sought to determine the effect of CT-1 on the phosphorylation status of myosin light chain. Myosin light chain regulates the ATPase activity of myosin heavy chain, and thus overall contractile activity. […] Myosin light chain phosphorylation could be prevented by co-incubation with ML-7 or W7 but not AG490 or PP2 (FIG. 25b)."}, "[4]": {"test_system": "porcine coronary artery vascular smooth muscle cells", "assay": "Chemotaxis of vascular smooth muscle cells (data not shown)", "type": "cell-based"}, "cardiac myofibroblasts": {"test_system": "cardiac myofibroblasts", "assay": "Estimation of membrane potential with DiBAC4(3) dye", "type": "cell-based, rat", "details": "superfusion with CT-1 for 4 minutes", "description": "Myofibroblast membrane potential was estimated using voltage sensitive DiBAC4(3) dye (Molecular Probes, Eugene, Oreg.). […] First passage myofibroblasts were plated on glass coverslips, allowed to attach, then incubated with 1 μM DiBAC4(3) in control solution containing: NaCl (140 mM), KCl (5 mM), HEPES (10 mM), CaCl2 (2.0 mM), MgCl2 (1.4 mM) and glucose (10 mM) for 20 minutes. The cells were visualized at 400× on an inverted microscope (Nikon Canada). DiBAC4 (3) was excited at 470 nm wavelength and emitted light at 525 nm was digitized and stored (Photon Technology International, Lawrenceville, N.J.). Fluorescence intensity was normalized to maximum fluorescence observed throughout the experiment. To ensure fluorescence intensity changes in response to altered membrane potential were occurring as expected, the cells were superfused with Tyrode's solution containing 1 μM DiBAC4(3) and 1.5 mM KCl or 15 mM KCl. Under these control conditions, DiBAC4(3) fluorescence decreased or increased indicating hyperpolarization or depolarization, respectively. For CT-1 experiments, CT-1 was diluted in control solution containing 1 μM DiBAC4(3). After ensuring a stable fluorescence signal, the cells were superfused with the CT-1 containing solution for 4 minutes, followed by washout. Fluorescence was monitored for a total of 10 minutes."}, "rat cardiac fibroblasts": {"test_system": "rat cardiac fibroblasts", "assay": "Boyden chamber migration assay", "type": "cell-based", "description": "Migration of rat cardiac fibroblasts was measured using Boyden chamber (Neuro Probe Inc. Gaithersburg, Md.) assay (Richards and McCullough, 1984, Immunol Commun 13: 49-62). Chemoattractants were diluted in DMEM/F12 and loaded into the lower wells at specified concentrations. The polycarbonate membrane (5 μm pore) was placed over the wells, and 55 μL cell suspension in DMEM/F12 supplemented with 100 μM ascorbate was loaded into each well (1000 cells/mm^2). The chamber was incubated overnight in 5% CO2 and 100% humidity at 37° C. Cells that had migrated through the membrane and become adherent to the lower surface were fixed with methanol and stained with Diff-Quick stain (Dade Behring AG, Düdingen, Switzerland). Cell migration was determined by counting the number of cells per high power field."}, "cardiac fibroblasts [5]": {"test_system": "cardiac fibroblasts", "assay": "Collagen synthesis (P1CP radioimmunoassay of conditioned media)", "type": "cell-based, rat", "details": "CT-1 for 24 hours", "description": "Synthesis of mature type I collagen was determined by measuring the concentration of the carboxyterminal propeptide of type I collagen (P1CP) in conditioned media from CT-1 treated or untreated cardiac fibroblasts. 5×10^4 cells were loaded into each well of a 6 well plate, allowed to attach overnight, and serum starved for 24 hours. Cells were treated with CT-1 at specified concentrations for an additional 24 or 48 hours. P1CP content in 0.1 mL conditioned media was determined by radioimmunoassay according to the manufacturer's specification (Diasorin Inc, Stillwater, Minn.). Radioactivity was quantified with a gamma counter (Gamma 5500, Beckman Coulter, Fullerton, Calif.) and the concentration of P1CP was determined by the % B/B0 versus log concentration."}, "cardiac fibroblasts [6]": {"test_system": "cardiac fibroblasts", "assay": "Cell counting (Coulter counter)", "type": "cell-based, rat", "details": "CT-1 for 24 hours", "description": "To determine absolute cell numbers after stimulation with CT-1, the total number of cells were counted. Equal numbers of cells were loaded into each well of 24 well plates and incubated with CT-1 for 24 hours. The cells were detached with trypsin, diluted in filtered phosphate buffered saline, and counted with Model ZM Coulter cell counter (Beckman Coulter, Fullerton, Calif.)."}},
  "data": [
    {"molecule": "cardiotrophin-1 (protein, UniProt Q16619 1-201, looked up, gp130 signaling cytokine of the LIF or IL-6 superfamily; 201 amino acids as a mature protein, 21.5 kDa) Cardiotrophin-1: MSRREGSLEDPQTDSSVSLLPHLEAKIRQTHSLAHLLTKYAEQLLQEYVQLQGDPFGLPSFSPPRLPVAGLSAPAPSHAGLPVHERLRLDAAALAALPPLLDAVCRRQAELNPRAPRLLRRLEDAARQARALGAAVEALLAALGAANRGPRAEPPAATASAASATGVFPAKVLGLRVCGLYREWLSRTEGDLGQLLPGGSA", "values": [
      {"measurement": "nuclear accumulation of STAT3", "setting": "cardiac fibroblasts [1]", "result": "nuclear accumulation of STAT3"},
      {"measurement": "phosphorylation of the retinoblastoma protein", "setting": "cardiac fibroblasts [2]; Rb pS795, pS807/811", "result": "hyperphosphorylation"},
      {"measurement": "expression of cyclins", "setting": "cardiac fibroblasts [2]; cyclins A, E, CT-1 for specified times", "result": "increase in expression of cyclins"},
      {"measurement": "phosphorylation of myosin light chain at threonine 18/serine 19", "setting": "cardiac fibroblasts [3]", "result": "induced phosphorylation"},
      {"measurement": "chemotactic effect", "setting": "[4]", "result": "does appear to have a chemotatic effect"},
      {"measurement": "cell membrane potential (DiBAC4(3) fluorescence)", "setting": "cardiac myofibroblasts", "result": "pronounced hyperpolarization"},
      {"measurement": "cardiac fibroblast migration", "setting": "rat cardiac fibroblasts; CT-1 gradient, overnight", "result": "induced cardiac fibroblast migration in a dose dependent manner"},
      {"measurement": "dependence of CT-1 induced migration", "setting": "rat cardiac fibroblasts; ion channel and myosin light chain kinase function", "result": "dependent on functioning potassium channels and myosin light chain kinase"},
      {"measurement": "dependence of CT-1 chemotaxis", "setting": "rat cardiac fibroblasts; specific inhibitors of signaling pathways, integrin inhibitors", "result": "dependent on intracellular signaling pathways"},
      {"measurement": "P1CP expression normalized to the number of cells at the end of the experiment", "setting": "cardiac fibroblasts [5]; corrected for cell number", "result": "apparent decrease in overall mature collagen synthesis"},
      {"measurement": "expression of P1CP in the culture media (mature collagen synthesis)", "setting": "cardiac fibroblasts [5]; not normalized", "result": "increased expression of P1CP"},
      {"measurement": "total cell number", "setting": "cardiac fibroblasts [6]", "result": "increase in total cell number"}
    ]}
  ]
}
